This experiment concerns the target T1, N1-525 with an Histidine tag (full length measles virus nucleoprotein, Edmonston strain) (measles virus (Edmonston strain), UniProt P0DXN6 1-525).
T1 construct: also called full length N
T1 sequence: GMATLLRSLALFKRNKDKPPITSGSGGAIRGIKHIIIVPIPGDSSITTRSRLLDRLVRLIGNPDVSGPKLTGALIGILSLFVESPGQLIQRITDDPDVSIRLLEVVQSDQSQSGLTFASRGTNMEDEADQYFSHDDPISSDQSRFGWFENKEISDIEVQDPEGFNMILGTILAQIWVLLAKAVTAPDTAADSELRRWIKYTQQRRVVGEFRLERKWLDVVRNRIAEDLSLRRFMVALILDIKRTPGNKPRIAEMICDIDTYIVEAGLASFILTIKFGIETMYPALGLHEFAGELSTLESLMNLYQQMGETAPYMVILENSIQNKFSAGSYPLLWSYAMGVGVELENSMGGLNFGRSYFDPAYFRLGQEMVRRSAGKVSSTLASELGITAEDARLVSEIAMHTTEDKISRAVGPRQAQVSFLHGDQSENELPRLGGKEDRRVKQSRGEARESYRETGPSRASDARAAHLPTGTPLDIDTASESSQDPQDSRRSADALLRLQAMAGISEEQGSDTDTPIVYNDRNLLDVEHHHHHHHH
Put plainly: co-expression, TEV cleavage, SAXS and SEC-MALLS.

B1: P1-50 with a TEV peptide amino acid sequence (first 50 amino acids of measles virus phosphoprotein, Edmonston strain, after TEV cleavage) (peptide)
peptide: MAEEQARHVKNGLECIRALKAEPIGSLAIEEAMAAWSEISDNPGQERATCENLYFQN
notes: Produced as a P1-50-TEV site-N fusion in E. coli and cleaved with TEV; also called P1-50 peptide; minimal P peptide
In the case of B1, the binding result is “binds”.
